In patent publication US20240279277A1, “PREPARING METHOD OF HIGHLY FUNCTIONAL PEPTIDE DERIVED FROM KERATINOCYTE PROTEIN” (ANPEP INC., priority 2021, published 2024):

The compounds below were run against T1, elastase (type I: derived from porcine pancreas) (Sus scrofa, UniProt P00772) (assay: Elastase inhibition test (p-nitroanilide release, absorbance 410 nm)). Details: peptides and controls 100 μg/mL; N-succinyl-(L-Ala) 3-p-nitroanilide substrate, 37 °C, 30 minutes.
T1 construct: type I: derived from porcine pancreas; purchased Sigma Aldrich, USA; host or cells: porcine pancreas (tissue-derived)
T1 sequence (P00772 27-266): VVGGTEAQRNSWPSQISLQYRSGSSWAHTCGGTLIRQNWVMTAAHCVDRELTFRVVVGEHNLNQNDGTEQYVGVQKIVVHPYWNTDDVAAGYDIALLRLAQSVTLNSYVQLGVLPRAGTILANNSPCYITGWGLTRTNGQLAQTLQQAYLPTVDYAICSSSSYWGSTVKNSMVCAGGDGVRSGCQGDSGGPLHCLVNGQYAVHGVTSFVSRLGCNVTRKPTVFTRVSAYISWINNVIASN
Assay type: biochemical
Method: In order to confirm the anti-wrinkle effect of tetrapeptides, a test of inhibiting elastase was performed. The amount of p-nitroanilide produced was measured using N-succinyl-(L-Aal) 3-p-nitroanilide as a substrate at 37 °C for 30 minutes. After adding each of the peptides to be tested and negative and positive controls in an amount of 100 μg/mL into test tube, respectively, a pancreatic solution (type I: derived from porcine pancreas, 0.6 unit/mL, Sigma Aldrich, USA) in an amount of […] was added thereto. Thereafter, a substrate, in which N-succinyl-(L-Ala) 3-p-nitroanilide (1 mg/mL) was dissolved in 50 mM Tris-HCl buffer (pH 8.6), was added in an amount of […] thereto and allowed to react for 30 minutes and the absorbance was measured at 410 nm using a microplate reader. The elastase inhibitory activity was expressed as a decrease rate in absorbance of the groups with and without the addition of the sample solution as shown in Equation 1 below.
After treating the 42 kinds of synthesized peptides, their effects on inhibition of elastase were measured.
For `C[C@H]1[C@H](C)CC[C@]2(C(=O)O)CC[C@]3(C)C(=CC[C@@H]4[C@@]5(C)CCC(=O)C(C)(C)[C@@H]5CC[C@]43C)[C@H]12` [Ursonic acid, reference compound], the “Elastase Inhibition Rate(%)” value was 28.8%.
In the case of “CAPQ (Tetra Peptide) [Sample 14, tetrapeptide]”, the “Elastase Inhibition Rate(%)” value is reported as 77.2%.
In the case of “CFSS (Tetra Peptide) [Sample 21, tetrapeptide]”, the “Elastase Inhibition Rate(%)” value is reported as 47.4%.
For “DCVK (Tetra Peptide) [Sample 5, tetrapeptide]”, the “Elastase Inhibition Rate(%)” value was 118.4%.
For “EGQL (Tetra Peptide) [Sample 30, tetrapeptide]”, the “Elastase Inhibition Rate(%)” value was 69.7%.
In the case of “EHQE (Tetra Peptide) [Sample 29, tetrapeptide]”, the “Elastase Inhibition Rate(%)” value is reported as 66.3%.
With “ELPE (Tetra Peptide) [Sample 24, tetrapeptide]” the “Elastase Inhibition Rate(%)” value was 90.5%.
With “EQQE [25] (Tetra Peptide) [Sample 25, tetrapeptide]” the “Elastase Inhibition Rate(%)” value was 53.6%.
“EQQE [37] (Tetra Peptide) [Sample 37, tetrapeptide]” was tested, and the “Elastase Inhibition Rate(%)” value was 64.2%.
With “EVQW (Tetra Peptide) [Sample 42, tetrapeptide]” the “Elastase Inhibition Rate(%)” value was 49.5%.
“FSSG (Tetra Peptide) [Sample 22, tetrapeptide]” was tested, and the “Elastase Inhibition Rate(%)” value was 69.1%.
In the case of “GCFS (Tetra Peptide) [Sample 20, tetrapeptide]”, the “Elastase Inhibition Rate(%)” value is reported as 55.2%.
In the case of GGSG [Sample 18], the “Elastase Inhibition Rate(%)” value is reported as 103.5%.
For “GQDP (Tetra Peptide) [Sample 34, tetrapeptide]”, the “Elastase Inhibition Rate(%)” value was 34.5%.
“GQLE (Tetra Peptide) [Sample 23, tetrapeptide]” was tested, and the “Elastase Inhibition Rate(%)” value was 73.2%.
With “GQLK (Tetra Peptide) [Sample 27, tetrapeptide]” the “Elastase Inhibition Rate(%)” value was 56.0%.
For “GQVS (Tetra Peptide) [Sample 10, tetrapeptide]”, the “Elastase Inhibition Rate(%)” value was 33.9%.
“GSGY (Tetra Peptide) [Sample 9, tetrapeptide]” was tested, and the “Elastase Inhibition Rate(%)” value was 56.3%.
In the case of “GSSG (Tetra Peptide) [Sample 19, tetrapeptide]”, the “Elastase Inhibition Rate(%)” value is reported as 58.3%.
For “GYVS (Tetra Peptide) [Sample 11, tetrapeptide]”, the “Elastase Inhibition Rate(%)” value was 78.5%.
For “KHLE (Tetra Peptide) [Sample 28, tetrapeptide]”, the “Elastase Inhibition Rate(%)” value was 79.3%.
“KTSG (Tetra Peptide) [Sample 7, tetrapeptide]” was tested, and the “Elastase Inhibition Rate(%)” value was 44.5%.
“LELP (Tetra Peptide) [Sample 26, tetrapeptide]” was tested, and the “Elastase Inhibition Rate(%)” value was 78.2%.
With “LEVP (Tetra Peptide) [Sample 31, tetrapeptide]” the “Elastase Inhibition Rate(%)” value was 70.6%.
In the case of “MSYQ (Tetra Peptide) [Sample 1, tetrapeptide]”, the “Elastase Inhibition Rate(%)” value is reported as 79.4%.
In the case of “PEEQ (Tetra Peptide) [Sample 32, tetrapeptide]”, the “Elastase Inhibition Rate(%)” value is reported as 64.0%.
In the case of “PPVD (Tetra Peptide) [Sample 4, tetrapeptide]”, the “Elastase Inhibition Rate(%)” value is reported as 72.5%.
In the case of “PTPQ (Tetra Peptide) [Sample 3, tetrapeptide]”, the “Elastase Inhibition Rate(%)” value is reported as 69.3%.
For “QKKQ (Tetra Peptide) [Sample 2, tetrapeptide]”, the “Elastase Inhibition Rate(%)” value was 88.7%.
“QLKY (Tetra Peptide) [Sample 35, tetrapeptide]” was tested, and the “Elastase Inhibition Rate(%)” value was 60.5%.
In the case of “QMGQ (Tetra Peptide) [Sample 33, tetrapeptide]”, the “Elastase Inhibition Rate(%)” value is reported as 55.6%.
For “QPSY (Tetra Peptide) [Sample 15, tetrapeptide]”, the “Elastase Inhibition Rate(%)” value was 63.5%.
With “QQKQ (Tetra Peptide) [Sample 41, tetrapeptide]” the “Elastase Inhibition Rate(%)” value was 72.3%.
“SGGS (Tetra Peptide) [Sample 8, tetrapeptide]” was tested, and the “Elastase Inhibition Rate(%)” value was 49.6%.
For “SQQV (Tetra Peptide) [Sample 12, tetrapeptide]”, the “Elastase Inhibition Rate(%)” value was 49.3%.
“SSGG (Tetra Peptide) [Sample 17, tetrapeptide]” was tested, and the “Elastase Inhibition Rate(%)” value was 77.0%.
In the case of “TKGE (Tetra Peptide) [Sample 38, tetrapeptide]”, the “Elastase Inhibition Rate(%)” value is reported as 59.3%.
“TQTS (Tetra Peptide) [Sample 13, tetrapeptide]” was tested, and the “Elastase Inhibition Rate(%)” value was 59.0%.
With “VEHQ (Tetra Peptide) [Sample 40, tetrapeptide]” the “Elastase Inhibition Rate(%)” value was 55.7%.
For “VKTS (Tetra Peptide) [Sample 6, tetrapeptide]”, the “Elastase Inhibition Rate(%)” value was 66.3%.
In the case of “VLLP (Tetra Peptide) [Sample 39, tetrapeptide]”, the “Elastase Inhibition Rate(%)” value is reported as 60.7%.
With “YGGG (Tetra Peptide) [Sample 16, tetrapeptide]” the “Elastase Inhibition Rate(%)” value was 67.1%.
With “YLEQ (Tetra Peptide) [Sample 36, tetrapeptide]” the “Elastase Inhibition Rate(%)” value was 72.3%.
